Test results published in US20260097113A1 (Pfizer, published 2026).

T1: RSV F protein of subtype A comprising a polypeptide of SEQ ID NO: 1 and a polypeptide of SEQ ID NO: 2 (RSV subtype A, UniProt P11209 137-513; P03420 26-109)
T1 construct: Stabilized prefusion F trimer made of three F2-F1 heterodimers; Produced recombinantly in CHO cells; also called RSV A; RSVA
T1 chain 1: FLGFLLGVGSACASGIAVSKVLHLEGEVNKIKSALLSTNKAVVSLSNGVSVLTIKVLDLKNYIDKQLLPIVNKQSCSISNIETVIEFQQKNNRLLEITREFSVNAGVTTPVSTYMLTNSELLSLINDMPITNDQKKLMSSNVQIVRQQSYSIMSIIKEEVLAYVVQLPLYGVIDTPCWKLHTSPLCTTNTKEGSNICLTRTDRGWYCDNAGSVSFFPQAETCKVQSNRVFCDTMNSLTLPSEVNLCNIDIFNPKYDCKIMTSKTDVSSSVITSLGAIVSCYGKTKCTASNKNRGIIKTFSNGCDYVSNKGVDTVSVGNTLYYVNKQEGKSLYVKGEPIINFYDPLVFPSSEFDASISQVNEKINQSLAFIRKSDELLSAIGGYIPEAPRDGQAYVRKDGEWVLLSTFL
T1 chain 2: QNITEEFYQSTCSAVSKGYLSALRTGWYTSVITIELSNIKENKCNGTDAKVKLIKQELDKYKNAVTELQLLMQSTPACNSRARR

T2: RSV F protein comprising a polypeptide of SEQ ID NO: 3 and a polypeptide of SEQ ID NO: 4 (RSV subtype B, UniProt O36634 137-513; O36634 26-109)
T2 construct: also called RSV B; RSVB
T2 chain 1: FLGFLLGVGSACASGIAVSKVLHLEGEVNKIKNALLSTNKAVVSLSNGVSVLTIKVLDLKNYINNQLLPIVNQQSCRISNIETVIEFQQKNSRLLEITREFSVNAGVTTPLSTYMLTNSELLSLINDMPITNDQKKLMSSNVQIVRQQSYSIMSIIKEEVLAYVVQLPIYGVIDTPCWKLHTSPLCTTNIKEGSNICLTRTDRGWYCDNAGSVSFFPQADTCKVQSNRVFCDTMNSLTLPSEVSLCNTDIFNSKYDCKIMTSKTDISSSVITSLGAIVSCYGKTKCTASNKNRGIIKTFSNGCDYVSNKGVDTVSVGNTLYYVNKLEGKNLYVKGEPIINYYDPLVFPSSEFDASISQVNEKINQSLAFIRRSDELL
T2 chain 2: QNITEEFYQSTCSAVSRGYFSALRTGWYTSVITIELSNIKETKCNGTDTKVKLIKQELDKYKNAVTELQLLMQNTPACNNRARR


What was measured:
[1] = molecular target: RSV A + RSV B bivalent composition (RSV subtype A; RSV subtype B); assay: AM14 Fab titration by SEC; Low-Fast cycle; 1 M 40°C (second value)
[2] = molecular target: RSV A + RSV B bivalent composition (RSV subtype A; RSV subtype B); assay: AM14 Fab titration by SEC; composition of Table 17; Pre-lyo Prep 2, T0 (second value)
[3] = molecular target: RSV A + RSV B bivalent composition (RSV subtype A; RSV subtype B); assay: AM14 Fab titration by SEC; High-Slow 2 cycle; 3 M 25°C
[4] = molecular target: RSV A + RSV B bivalent composition (RSV subtype A; RSV subtype B); assay: AM14 Fab titration by SEC; High-Slow 2 cycle; 8 M 40°C
[5] = molecular target: RSV A + RSV B bivalent composition (RSV subtype A; RSV subtype B); assay: AM14 Fab titration by SEC; High-Slow 2 cycle; 1 M 40°C (second value)
[6] = molecular target: T1, RSV F protein of subtype A comprising a …; assay: AM14 ELISA; F18 (pH 7, 50 mM NaCl, 3% sucrose + 3% mannitol); 2 wk 25°C
[7] = molecular target: T1, RSV F protein of subtype A comprising a …; assay: AM14 ELISA; F3 (pH 8, 0 mM NaCl, 9% sucrose); 1 wk 5°C
[8] = molecular target: T1, RSV F protein of subtype A comprising a …; assay: AM14 ELISA; F19 (pH 7, 50 mM NaCl, 3% trehalose + 3% mannitol); 2 wk 5°C
[9] = molecular target: T1, RSV F protein of subtype A comprising a …; assay: AM14 ELISA; F14 (pH 7, 50 mM NaCl, 4.5% sucrose); T0
[10] = molecular target: T1, RSV F protein of subtype A comprising a …; assay: AM14 ELISA; F13 (pH 7, 100 mM NaCl, 4.5% sucrose); 2 wk 25°C
[11] = molecular target: T1, RSV F protein of subtype A comprising a …; assay: AM14 ELISA; F1 (pH 8, 100 mM NaCl, 0% sucrose); T0
[12] = molecular target: T2, RSV F protein comprising a polypeptide …; assay: AM14 prefusion assay relative to standard; RSV B 480 µg/mL, 2% sucrose + 4% mannitol; post-lyo 2 months at 5°C
[13] = molecular target: T1, RSV F protein of subtype A comprising a …; assay: AM14 ELISA; F10 (pH 7, 50 mM NaCl, 4.5% sucrose); 2 wk 5°C
[14] = molecular target: T1, RSV F protein of subtype A comprising a …; assay: AM14 ELISA; F8 (pH 7, 50 mM NaCl, 0% sucrose); T0

Molecule | Prefusion Content (%) [1] [%] | Prefusion Content (%) [2] [%] | Prefusion Content (%) [3] [%] | Prefusion Content (%) [4] [%] | Prefusion Content (%) [5] [%] | AM14 prefusion content (%), relative to standard [6] [%] | AM14 prefusion content (%), relative to standard [7] [%] | AM14 prefusion content (%), relative to standard [8] [%] | AM14 prefusion content (%), relative to standard [9] [%] | AM14 prefusion content (%), relative to standard [10] [%] | AM14 prefusion content (%), relative to standard [11] [%] | AM14 prefusion content (%), relative to standard [12] [%] | AM14 prefusion content (%), relative to standard [13] [%] | AM14 prefusion content (%), relative to standard [14] [%]
AM14 Fab | 70 | 82 | 74 | 61 | 68 |  |  |  |  |  |  |  |  | 
AM14 (trimeric prefusion specific antibody of the AM14 ELISA) (antibody, V domains shown, Antibody as used in the AM14 ELISA, detected with an HRP-labeled secondary antibody) VH: EVQLVESGGGVVQPGRSLRLSCAASGFSFSHYAMHWVRQAPGKGLEWVAVISYDGENTYYADSVKGRFSISRDNSKNTVSLQMNSLRPEDTALYYCARDRIVDDYYYYGMDVWGQGATVTVSS VL: DIQMTQSPSSLSASVGDRVTITCQASQDIKKYLNWYHQKPGKVPELLMHDASNLETGVPSRFSGRGSGTDFTLTISSLQPEDIGTYYCQQYDNLPPLTFGGGTKVEIKR |  |  |  |  |  | 78 | 104 | 75 | 102 | 37 | 120 | 101 | 71 | 100
